Measurements reported in patent publication US20260184766A1 (APPLIED BIOMEDICAL SCIENCE INSTITUTE, published 2026).
Changes are numbered by the printed parent chain.

B1: RBD F4 chimeric bovine-human IgG1 (antibody, V domains shown)
VH: QVQLRESGPSLVKPSQTLSLTCTVSGFSLSSNGVVWVRQAPGKALEWLGDICSTGGTSFNPALKSRLSIAKDNSKSQVSLSVRSVTPEDTATYYCARSRGYDCYANVDALDYVDAWGQGLLVTVSS
VL: QAVLNQPSSVSGSLGQRVSITCSGSSSNVGNGYVSWYQLIPGSAPRTLIYGDTSRASGVPDRFSGSRSGNTATLTISSLQAEDEADYFCASAEDSSSNAVFGSGTTLTVL
B2: R2C3 (R5C1) chimeric bovine-human IgG1 (ultralong CDR3) (antibody)
VH: QVQLRESGPSLVKPSQTLSLTCTASGFSLSDKPVGWVRQAPGKPLEWLGSIDTAENTGYNPGLKSRLSITKDNSKSQVSLSLSSVTTEDSATYYCATVHQKTRKEKSCPDGYLYSSNTGRGYDCGVWTCRRVGGEFCSATGDWTSPSEEDFYEFYVDTWGQGAPVTVSS
VL: B1 VL
notes: also called SA-R2C3
B3: R2D6 chimeric bovine-human IgG1 (antibody, V domains shown)
VH: QVQLRESGPSLVKPSQTLSLTCTTSGFSLSSYAVGWVRQAPGKALEWVGDIDYVGNTDYNPALKSRLSITKDNSKSQVSLVVSSVTAEDAATYYCAKYSGAYAYAACNYYGWRCAWESYIDAWGQGLLVTVSS
VL: B1 VL
B4: R2F12 chimeric bovine-human IgG1 (ultralong CDR3) (antibody)
VH: QVQLRESGPSLVKPSQTLSLTCTVSGFSLSDKAVGWVRRAPGKALEWLGSIDTGGMTGYNPGLKSRLSITKDNSKSQVSLSVNSVTTEDSATYYCATVDQKTKNACPDDFDYRCSCIGGCGCARKGCVGPLCCRSDLGGYLTDSPAYIYEWYIDLWGQGLLVTVSS
VL: B1 VL
notes: also called RR2F12
B5: R2B1 chimeric bovine-human IgG1 (antibody, V domains shown)
VH: QVQLRESGPSLVKPSQTLSLTCTVSGFSLSDNNVGWVRQAPGKALEWLGVMHNDGNKGYNPALKSRLSITKDSSKSQVSLSLSSVTSEDTATYYCTRDNARCDSWTYDSCDTWYRNSWHVDAWGQGLLVTVSS
VL: B1 VL
B6: RBD A2 chimeric bovine-human IgG1 (antibody, V domains shown)
VH: B1 VH with S15L, T17I
VL: B1 VL
B7: RBD C6 chimeric bovine-human IgG1 (antibody, V domains shown)
VH: B1 VH with K43R, A44P, T54N, K75E, S81T, N106Y, D108Y, Y112T
VL: B1 VL
B8: SR3A3 chimeric bovine-human IgG1 (ultralong CDR3) (antibody)
VH: QVQLRESGPSLVKPSQTLSLTCTISGFSLSSYAVLWVRQAPGKPLEWLGSIDTAENTGYNPGLKSRLSITKDNSKSQVSLSVSSVTTEDSATYYCATVHQKTRKEKNCPDGYIYSSNITSGFDCGVWICRRVGSAFCSRTGDYTSPTELDIYEFYVEGWGQGVPVTVSS
VL: B1 VL
B9: R2G3 chimeric bovine-human IgG1 (ultralong CDR3) (antibody)
VH: QVQLRESGPSLVKPSQTLSLTCAASGFSLSDKAVGWVRRAPGKALEWLGSIDTGGSTGYNPGLKSRLSITKDNSKSQVSLSISSVTSEDSATYYCATVHQKTAEGDKTCPDGYEHTCGCIGGCGCKRSACIGALCCQASLGGWLSDGETYTYEFHVDTWGQGLVVTVSS
VL: B1 VL
notes: also called 2G3 IgG; R2-G3 IgG

These binders were tested against T1, SARS CoV-2 spike trimer protein from the parental Wuhan-Hu-1 isolate (recombinant stabilized extracellular … (SARS-CoV-2 (Wuhan-Hu-1))) (assay: ELISA, spike coated, chimeric IgG1).
T1 construct: also called Spike protein

Going from B1 to B2, the EC50 rises from 0.03 nM to 0.39 nM (13-fold).

Compared with B3, B4 is 8.2-fold lower in EC50: 0.41 nM for the first, 0.05 nM for the second. The second is the more potent here.

Compared with B5, B6 is 15-fold lower in EC50: 0.37 nM for the first, 0.024 nM for the second. The second is the more potent here.

B7 and B8 are within 1.5-fold of each other in EC50: 0.03 nM for the first, 0.037 nM for the second.

Each binder was assayed against T1, SARS CoV-2 spike trimer protein from … (assay: ELISA on coated spike protein, anti-human Fc-HRP, OD450).

Compared with B9, B4 is 2-fold higher in “EC50 (read off the curve)” value: about 0.01 nM for the first, about 0.02 nM for the second.

These binders were tested against T1, SARS CoV-2 spike trimer protein from … (assay: ELISA on coated recombinant stabilized spike protein, panel WT, OD 450).

B9 and B2 are within 1.5-fold of each other in “EC50 (read off the curve)” value: about 0.4 nM for the first, about 0.3 nM for the second.

For B4, the “EC50 (read off the curve)” value was about 0.3 nM.
